# In paper PMC10787225 (Computational and Structural Biotechnology Journal, 2023):
# B1: PAP(185−208) (peptide)
# peptide: KDFIATLGKLSGLHGQDLFGIWSK
# B2: TTC5(335−361) (peptide)
# peptide: AVILGKVVFSLTTEEKVPFTFGLVDSD
# What was measured:
# [1] = Solubility by visible precipitation upon dissolution of lyophilized peptide; settings: aqueous buffer, µM concentrations, neutral pH; visual
# Method: (§1) Fig. 4 Test set of eight protein segments. (A) List of the investigated peptides. Underlined stretches in the peptide sequences correspond to the predicted amyloidogenic β-hairpins. A peptide was considered ‘soluble’ when no visible precipitation occurred upon dissolution of the lyophilized peptide in 20 mM NaPi, pH 7.4, 50 mM NaCl, to a final concentration of 20 µM. […] (B) Conformations of investigated segments (red) in the context of their source proteins.
# [2] = Thioflavin T (ThT) aggregation assay; type: physicochemical; settings: for Shape of ThT time course / kind of aggregates: 20–550 µM peptide; for Shape of ThT time course / kind of aggregates / ThT / ThT fluorescence time course: 20 mM NaPi, pH 7.4, 50 mM NaCl, 37 °C; for ThT: peptide 20–550 µM, up to 85 h, 300 rpm, glass bead; for ThT / ThT fluorescence time course: 25 µM ThT, triplicate; for ThT fluorescence of peptide alone: 50 mM Tris, pH 8.5, 37 °C, 40 µM ThT
# Method: All ThT aggregation assays were done in Greiner 96-well half-area, clear bottom, low-binding plates. The measurements themselves were done in a BMG CLARIOstar plate reader at 37 °C and 300 rpm shaking in orbital mode with one glass bead (0.75–1 mm, Roth) per well. Wells with samples were always surrounded by wells filled with liquid, either other samples or 150 μl water, to counter potential artefacts due to evaporation. […] Final concentrations of 25 µM ThT and 0.04% sodium azide (NaN3) were added. The plate was sealed with sealing tape and put into the plate reader, heated to 37 °C, and ThT fluorescence was read in 1000 cycles of 300 s each using bottom optics with excitation at 448 nm (10 nm bandwidth) and emission at 482 nm (10 nm bandwidth). […] Samples contained 40 µM ThT and 0.04% NaN3.
# as §1
# β-wrapin AS10 [3] = assay: 1H-15N HSQC NMR detection of β-hairpin formation upon AS10 binding; settings: 25 °C; for NMR signature of β-hairpin folding coupled to AS10 binding (1H–15N HSQC of 15N-AS10): 100 µM 15N-AS10 mixed with 20% molar excess of peptide, pH 7.4; for NMR β-hairpin: 100 µM 15N-AS10 with 20% molar excess of peptide, 20 mM sodium phosphate, pH 7.4, 50 mM NaCl
# Method: The NMR spectra were acquired at 25 °C using VNMRS instruments (Varian) at proton frequencies of 800 and 900 MHz, each equipped with a cryogenically cooled Z-axis pulse-field-gradient (PFG) triple resonance probe. The sample buffer was 20 mM sodium phosphate, pH 7.4, 50 mM NaCl, supplemented with 10% D2O. For detection of complex formation, samples contained 100 μM ^15N-labeled AS10, expressed and purified as described, [43], and a 20% excess of the unlabeled peptide. For determination of β-sheet registries, NMR samples contained ^13C^15N-labeled fusion constructs in concentrations between 360–700 μM. Backbone assignments were obtained using BEST-TROSY experiments. Nuclear Overhauser effect (NOE) based distance restraints for β-sheet registry determination were derived from 3D (^1H–^1H-^15N)-NOESY-HSQC (120 ms mixing time) and (^1H–^13Cali-^1H)-HSQC-NOESY (100 ms mixing time) experiments. NMR data were processed using NMRPipe and analyzed with CcpNMR [50].
# To test for β-hairpin formation in the peptides upon binding to AS10 we performed NMR spectroscopy. ^1H–^15N HSQC NMR spectroscopy using ^15N-labeled AS10 (^15N-AS10) and unlabeled binding partner leads to characteristic changes upon β-hairpin folding coupled to binding. These include a great increase in resonance dispersion, appearance of four amide proton resonances in the glycine region (^15N chemical shift <110 ppm) stemming from Gly-13 and Gly-14 in the two AS10-subunits, as well as appearance of amide proton resonances with shift values typical for β-sheet conformation (high ^1H and high ^15N chemical shifts).
# [4] = Atomic force microscopy (AFM) of samples at the end of ThT aggregation assays; type: physicochemical; settings: for AFM aggregate morphology: end of ThT aggregation assay in 20 mM NaPi, pH 7.4, 50 mM NaCl, dried on mica; for AFM aggregate morphology of individual peptide: end of ThT assay at moderate peptide concentrations without ThT fluorescence, 50 mM Tris, pH 8.5
# Method: (§2) For AFM imaging, 2 μl samples were taken out of the wells at the end of the ThT aggregation assays, put onto a freshly cleaved muscovite mica surface and dried during incubation for 10 min under the clean bench. Subsequently, the samples were washed with 100 μl ddH2O in three steps and dried with a stream of N2 gas. Imaging was performed in intermittent contact mode (AC mode) in a JPK NanoWizard 3 atomic force microscope using a silicon cantilever with silicon tip (OMCL-AC160TS-R3, Olympus) with a typical tip radius of 9 ± 2 nm, a force constant of 26 N/m and resonance frequency around 300 kHz. The images were processed using JPK DP Data Processing Software (version spm-5.0.84).
# β-wrapin AS10 [5] = assay: Isothermal titration calorimetry (ITC) of peptide binding to AS10; settings: 30 °C, 30 µM AS10 in cell, peptide titrated from syringe, 20 mM sodium phosphate, pH 7.4, 50 mM NaCl, 1:1 binding model
# Method: ITC was performed at 30 °C using a Microcal iTC200 calorimeter (GE Healthcare). AS10 was filled into the cell at a concentration of 30 µM in 20 mM sodium phosphate, pH 7.4, 50 mM NaCl. Peptides were titrated from the syringe in approximately 10-fold higher concentrations. Heats of post-saturation injections were averaged and subtracted from each injection to correct for heats of dilution and mixing. Dissociation constants were obtained from a nonlinear least-squares fit to a 1:1 binding model using MicroCal Origin.
# β-wrapin AS10 [6] = assay: ITC; 30 µM AS10 in the cell, peptides titrated from the syringe at approximately 10-fold higher concentrations; 30 °C; 20 mM sodium phosphate, pH 7.4, 50 mM NaCl; fit to a 1:1 binding model
# PAP(248−286) = assay: ThT aggregation assay and AFM of PAP(248−286) in presence of added peptide; type: biochemical, human; settings: 500 µM PAP(248−286), added peptide 25–100 µM, 50 mM Tris, pH 8.5, 37 °C, 40 µM ThT
# Method: (§3) All ThT aggregation assays were done in Greiner 96-well half-area, clear bottom, low-binding plates. The measurements themselves were done in a BMG CLARIOstar plate reader at 37 °C and 300 rpm shaking in orbital mode with one glass bead (0.75–1 mm, Roth) per well. Wells with samples were always surrounded by wells filled with liquid, either other samples or 150 μl water, to counter potential artefacts due to evaporation. […] Final concentrations of 25 µM ThT and 0.04% sodium azide (NaN3) were added. The plate was sealed with sealing tape and put into the plate reader, heated to 37 °C, and ThT fluorescence was read in 1000 cycles of 300 s each using bottom optics with excitation at 448 nm (10 nm bandwidth) and emission at 482 nm (10 nm bandwidth). […] PAP(248−286) and SEM1(86−107) were kept at constant concentrations of 500 and 300 µM, respectively. […] Samples contained 40 µM ThT and 0.04% NaN3.
# as §2
# SEM1(86−107) = assay: ThT aggregation assay and AFM of SEM1(86−107) in presence of added peptide; type: biochemical, human; settings: 300 µM SEM1(86−107), added peptide 25–100 µM, 50 mM Tris, pH 8.5, 37 °C, 40 µM ThT
# Method: as §3, §2
# [7] = peptide alone 25–100 µM (up to 100 µM)
molecule,measurement,setting,value
"3-PGDH(298−319): synthetic peptide of predicted β-hairpin-forming amyloidogenic segment 298−319 of 3-PGDH (EIAVQFVDMVKGKSLTGVVNAQ; UniProt O43175 298-319, looked up, fragment)",Precipitate formation upon dissolution,[1],immediate precipitate formation upon dissolution
same,Shape of ThT time course / kind of aggregates,[2],can form both ThT-positive as well as ThT-negative aggregates
same,ThT,[2],+
same,NMR signature of β-hairpin folding coupled to AS10 binding (1H–15N HSQC of 15N-AS10),β-wrapin AS10 [3],no change
CYP2W1(176−204): synthetic peptide of predicted β-hairpin-forming amyloidogenic segment 176−204 of CYP2W1 (SNITFALLFGRRFDYRDPVFVSLLGLIDE),Precipitate formation upon dissolution,[1],immediate precipitation
same,Shape of ThT time course / kind of aggregates,[2],ThT fluorescence was high from the beginning
same,ThT,[2],+
same,NMR signature of β-hairpin folding coupled to AS10 binding (1H–15N HSQC of 15N-AS10),β-wrapin AS10 [3],signature was also observed
same,NMR β-hairpin,β-wrapin AS10 [3],+
same,AFM aggregate morphology,[4],fibrillar aggregates confirming amyloid formation were detected
"MIC26(153−178): synthetic peptide of predicted β-hairpin-forming amyloidogenic segment 153−178 of MIC26 (QQAIVFAQVSGERLYDWGLRGYIVIE; UniProt Q9BUR5 153-178, looked up, fragment)",Precipitate formation upon dissolution,[1],immediate precipitation
same,Shape of ThT time course / kind of aggregates,[2],ThT fluorescence was high from the beginning
same,ThT,[2],+
same,NMR signature of β-hairpin folding coupled to AS10 binding (1H–15N HSQC of 15N-AS10),β-wrapin AS10 [3],no change
same,AFM aggregate morphology,[4],fibrillar aggregates confirming amyloid formation were detected
NBPF1(928−946): synthetic peptide of predicted β-hairpin-forming amyloidogenic segment 928−946 of NBPF1 (RSAFYILEQQRVGWALDMD),ThT fluorescence time course,[2]; 20–25 µM peptide,no increase in fluorescence intensity was detected
same,ThT fluorescence time course,[2]; peptide increased to 500–550 µM,remained ThT negative
same,Affinity to AS10 (dissociation constant KD),β-wrapin AS10 [5],heat signals were not observed
same,NMR signature of β-hairpin folding coupled to AS10 binding (1H–15N HSQC of 15N-AS10),β-wrapin AS10 [3],no change
NDUFS7(104−129) (from UniProt O75251 104-129) (peptide),Kd,β-wrapin AS10 [6],4.7 µM
"PAP Str1(186−194): β-strand peptide, constituent segment 186−194 of PAP(185−208) (DFIATLGKL)",Effect of added peptide on ThT time trace of PAP(248−286),PAP(248−286),ThT time traces exhibited additional phases of rapid growth
same,ThT fluorescence of peptide alone,[2]; [7],concentration-dependent increase in ThT fluorescence within minutes to a few hours
same,Effect of added peptide on ThT time trace of SEM1(86−107),SEM1(86−107),ThT time traces exhibited additional phases of rapid growth
"PAP Str2(200−208): β-strand peptide, constituent segment 200−208 of PAP(185−208)",Effect of added peptide on ThT time trace of PAP(248−286),PAP(248−286),"induced increases in ThT fluorescence, albeit with somewhat longer lag-times"
same,ThT fluorescence of peptide alone,[2]; [7],do not exhibit ThT fluorescene
same,Effect of added peptide on ThT time trace of SEM1(86−107),SEM1(86−107),"induced increases in ThT fluorescence, albeit with somewhat longer lag-times"
PAP(248−286): PAP fragment which forms functional amyloid in semen (GIHKQKEKSRLQGGVLVNEILNHMKRATQIPSYKKLIMY) [reference compound],ThT fluorescence of peptide alone,[2]; peptide alone 500 µM,did not exhibit ThT fluorescence
same,AFM aggregate morphology of individual peptide,[4],aggregates of amorphous shape
"SEM1(86−107): semen amyloid peptide, fragment of semenogelin-1 (DLNALHKTTKSQRHLGGSQQLL) [reference compound]",ThT fluorescence of peptide alone,[2]; peptide alone 300 µM,did not exhibit ThT fluorescence
same,AFM aggregate morphology of individual peptide,[4],aggregates of amorphous shape
TTC5(335−361): synthetic peptide of predicted β-hairpin-forming amyloidogenic segment 335−361 of TTC5 (AVILGKVVFSLTTEEKVPFTFGLVDSD),ThT,[2],+
same,Kd,β-wrapin AS10 [5]; read-out: Affinity to AS10 (dissociation constant KD),4.7 ± 0.9 µM
same,NMR signature of β-hairpin folding coupled to AS10 binding (1H–15N HSQC of 15N-AS10),β-wrapin AS10 [3],signature was observed
same,NMR β-hairpin,β-wrapin AS10 [3],+
B1,Kd,β-wrapin AS10 [6],39 µM
B2,Kd,β-wrapin AS10 [6],4.7 µM
